For test [1], the target named is T1, Recombinant Human Tumor Necrosis Factor-alpha (TNF-alpha) (human, UniProt P01375 77-233).
T1 construct: Bought reagent; also called TNFα
Briefly: SPR (Test Method A of Example 3), peptide immobilised, TNF-alpha injected. Here is the method:
(§1) The following Test Method A was used for determining the binding affinity (KD) of SEQ ID NO: 1 for EGF and TNF-[…] Binding experiments were performed using Biacore 3000 optical biosensors equipped with research-grade CM5 sensor chips (GE Healthcare Bio-Sciences Corporation). The reagents used for the amine-coupling steps [(1-ethyl-3-(3-dimethylaminopropyl)-carbodiimide (EDC); N-hydroxysuccinimide (NHS); and ethanolamine hydrochloride-NaOH (1 M, pH 8.5)] were obtained from GE Healthcare Bio-Sciences Corporation. In order to efficiently immobilize the peptide on the sensor chips, a modified version of SEQ ID NO:1 was prepared by SPPS in which a “CK” amino acid linker sequence was added to the N-terminal end of the SEQ ID NO: 1 peptide (i.e. linker modified version of SEQ ID NO: 1 for immobilization being […]). A standard coupling protocol was employed to immobilize the linker modified version of SEQ ID NO: 1 via the lysine residue. The immobilization was performed at 25° C. using HBS-EP as the running buffer. The CM-dextran surfaces of the sensor chip flow cells were activated by a seven minute injection (20 microliters/minute) of freshly prepared 1:1 50 mM NHS: 200 mM EDC. A solution of linker modified SEQ ID NO: 1 in acetic acid (20 mM, pH 5.5) was injected to target 200 response units (RU). […]

Test [2] has as its target T2, Recombinant Human Epidermal Growth Factor (EGF) (human, UniProt P01133 971-1023).
T2 construct: Bought reagent; also called EGF protein
Briefly: SPR (Test Method A of Example 3), peptide immobilised, EGF injected. Here is the method:
as §1

The target in test [3] is T2, Recombinant Human Epidermal Growth …. Briefly: dot blot, peptide spotted on nitrocellulose, EGF in solution, detected with anti-EGF-IgG-HRP. On the procedure: SEQ ID NO: 1 (1 microliter of a 10 nM solution in PBS containing 3 wt. % DMSO) and SEQ ID NO: 2 (1 microliter of a 10 nM solution in PBS containing 3 wt. % DMSO) were individually spotted at separate sites on a nitrocellulose membrane (obtained from Thermo Fisher Scientific, Waltham, Mass.) and the membrane was dried in air for about 30 minutes. The membrane was then incubated in 25 mL of blocking buffer (3 wt. % BSA in PBS) for one hour at room temperature. The membrane was washed three times (15 minutes for each wash) with 15 mL portions of fresh PBST. The washed membrane was incubated with EGF protein [10 microliters of a 100 ng/mL solution in blocking buffer (3 wt. % BSA in PBS)] with gentle agitation for one hour. The membrane was again washed three times (15 minutes for each wash) with 15 mL portions of fresh PBST. The washed membrane was incubated with anti-EGF-IgG-HRP [1:5000 dilution in 10 mL of the blocking buffer (3 wt. % BSA in PBS)] for one hour with gentle agitation. Following the incubation, the membrane was washed three times (15 minutes for each wash) with 15 mL portions of fresh PBST. The washed membrane was incubated with 10 mL of the development solution for horseradish peroxidase (TMB-Blotting Substrate Solution, Pierce-Fisher Scientific, Rockford, Ill.) with gentle agitation. The color development was stopped by adding water.

For test [4] the target is unchanged. Briefly: dot blot, EGF spotted on nitrocellulose, biotinylated peptide in solution, detected with Streptavidin-HRP. On the procedure:
EGF (1 microliter of a 10 nM solution in PBS was spotted a nitrocellulose membrane (obtained from Thermo Fisher Scientific) and the membrane was dried in air for about 30 minutes. The membrane was then incubated in 15 mL of blocking buffer (3 wt. % BSA in PBS) for one hour at room temperature. The membrane was washed three times (15 minutes for each wash) with 15 mL portions of fresh PBST. The washed membrane was incubated with Biotinylated SEQ ID NO: 1 [10 mL of a 10 ng/mL solution in blocking buffer (3 wt. % BSA in PBS)] with gentle agitation for one hour. The membrane was again washed three times (15 minutes for each wash) with 15 mL portions of fresh PBST. The washed membrane was incubated with Streptavidin-HRP [1:5000 dilution in 10 mL of the blocking buffer (3 wt. % BSA in PBS)] for 30 minutes with gentle agitation. Following the incubation, the membrane was washed three times (15 minutes for each wash) with 15 mL portions of fresh PBST. The washed membrane was incubated with 10 mL of the development solution for horseradish peroxidase (TMB-Blotting Substrate Solution, Pierce-Fisher Scientific) with gentle agitation. The color development was stopped by adding water. A dark spot developed at the application site on the membrane indicating affinity of SEQ ID NO: 1 for EGF.

Test [5] concerns the target T1, Recombinant Human Tumor Necrosis …. Description: SPR (Biacore 3000, CM5), peptide immobilised, TNF-alpha injected at 62.5-1000 nM, 25 C, 1:1 Langmuir global fit. On the procedure: as §1
(In SPR one partner is held on a chip, and binding of the other changes the refractive index at the surface.)

The target in test [6] is T2, Recombinant Human Epidermal Growth …. Description: SPR (Biacore 3000, CM5), peptide immobilised, EGF injected at 62.5-1000 nM, 25 C, 1:1 Langmuir global fit. Here is the method:
as §1

Where no end group is shown, it is not given here.

T2 sequence (P01133 971-1023 limits assumed): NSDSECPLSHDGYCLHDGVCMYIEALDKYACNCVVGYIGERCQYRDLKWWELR
T1 sequence (P01375 77-233 limits assumed): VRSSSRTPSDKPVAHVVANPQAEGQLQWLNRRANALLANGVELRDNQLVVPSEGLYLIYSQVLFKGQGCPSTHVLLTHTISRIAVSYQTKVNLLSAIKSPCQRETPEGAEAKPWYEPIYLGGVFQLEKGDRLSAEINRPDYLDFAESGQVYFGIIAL

B1: linker modified version of SEQ ID NO: 2 (CKWFEWPYWE) (peptide)
peptide: CKWFEWPYWE
modifications: also: immobilised on CM5 sensor chip via Lys of linker, conjugated to iodoacetyl magnetic beads via Cys of linker
Consider B1, for which the Kd in test [1] stood at 340 µM; in test [2] it was 0.466 µM.

B2: peptide SEQ ID NO: 2 (WFEWPYWE) (peptide)
peptide: Ac-WFEWPYWE-NH2
notes: Chemically synthesised (SPPS)
Regarding B2, the binding result in test [3] was “binds”.

B3: Biotinylated SEQ ID NO: 1 (peptide)
peptide: WFEWPYWEMNVPDVWN
modifications: also: biotinylated, site not given here
Consider B3, for which the binding result in test [4] is given as “binds”.

B4: linker modified version of SEQ ID NO: 1 (CKWFEWPYWEMNVPDVWN) (peptide)
peptide: CKWFEWPYWEMNVPDVWN
modifications: also: amine-coupled to CM5 sensor chip via Lys of CK linker
Turning to B4, the values for the Kd in test [5] and in test [6] were 75.1 µM and 0.087 µM, respectively.

B5: peptide SEQ ID NO: 1 (WFEWPYWEMNVPDVWN) (peptide)
peptide: Ac-WFEWPYWEMNVPDVWN-NH2
notes: Chemically synthesised (SPPS)
Consider B5, for which, in test [3], the binding result was “binds”.

As usually defined, the Kd is a measure of binding affinity in units of concentration.

For the origin of these results see patent US20200123212A1 (3M INNOVATIVE PROPERTIES, published 2020).
